According to the supplement of paper PMC10724198:
± gives the standard deviation of the averaged measurements.

Test system: Saccharomyces cerevisiae
Assay: protein stability index of tFT-peptide fusion (C-terminal peptide) (PSI (0-1 scale)); higher = more stable (slower turnover)
Conditions: genetic background: wild type; temperature: 30 C
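Note: PSI is a weighted mean of sequencing reads over stability bins, variants kept only with over 10 reads, mCherry proximal and sfGFP distal, peptide attached via GGGS linker.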

| Sequence | protein stability index |
| --- | --- |
| VRTLVGQVWETV | 0.721 ± 0.031 |
| KIEHEGIKTGGT | 0.757 ± 0.16 |
| HACGGVFLSSVR | 0.693 ± 0.025 |
| EFVGKDRWVGGL | 0.699 ± 0.053 |
| QQRHITHRKIRI | 0.6595 ± 0.0048 |
| YSTYGGGYFMAF | 0.668 ± 0.031 |
| GWGFVGGTVAAV | 0.705 ± 0.034 |
| GGEGPKGDRGRA | 0.649 ± 0.018 |
| NRQNNYANDIQK | 0.713 ± 0.045 |
| SSVSRIYTPSSL | 0.677 ± 0.12 |
| GVGREGEIGGGG | 0.544 ± 0.037 |
| VPCILLFSHFKH | 0.619 ± 0.042 |
| PSPPLPPPAPLL | 0.718 ± 0.056 |
| VHVMSPPPALPV | 0.659 ± 0.013 |
| REKKDKKNSKKI | 0.701 ± 0.022 |
| FTACSVCVETMN | 0.678 ± 0.17 |
| MCVFGLFCSCFD | 0.586 ± 0.082 |
| SRPRSPPPPPIT | 0.819 ± 0.054 |
| EGGRRHSVGEQE | 0.679 ± 0.01 |
| PPPASLTSPRQP | 0.731 ± 0.013 |
| VPSGTHHPFTLS | 0.751 ± 0.02 |
| SSGVCSGTSALN | 0.681 ± 0.033 |
| SPPTEPFPDPTH | 0.6628 ± 0.0053 |
| PPNTSVPSSLGR | 0.667 ± 0.038 |
| GPSVRSTARGPG | 0.724 ± 0.12 |
| KKKKKKLKKKKI | 0.724 ± 0.056 |

| Sequence | protein stability index |
| --- | --- |
| VPVGSWVGIGGK | 0.692 ± 0.043 |
| PARGPTPHIVPR | 0.667 ± 0.053 |
| VGCTSFWLAILR | 0.56 ± 0.026 |
| PPPPHPPRPPRP | 0.676 ± 0.0074 |
| LPVSGLRAAGAM | 0.7154 ± 0.0034 |
| PVAGTLDVHYRV | 0.7098 ± 0.0063 |
| RLGGGGVGGAGV | 0.699 ± 0.019 |
| VPTLCDQVFLFA | 0.627 ± 0.0086 |
| GRPLRAPPPPSP | 0.65 ± 0.043 |
| APPEAPQEPLTL | 0.727 ± 0.0092 |
| GWGHYFGLIREQ | 0.698 ± 0.045 |
| PPLPPSPPCPPA | 0.642 ± 0.079 |
| PPSPPAVISAGL | 0.716 ± 0.066 |
| TRSLPSSSSHSL | 0.727 ± 0.011 |
| KISNRNKRTNRK | 0.689 ± 0.077 |
| PLPRPPPPANSP | 0.714 ± 0.063 |
| GEQSYGGHSVQT | 0.642 ± 0.054 |
| PHAPTAGPFPLP | 0.783 ± 0.021 |
| TPPIPTTTSNFS | 0.734 ± 0.052 |
| EYGECWCWSSWR | 0.732 ± 0.059 |
| AERKTKASRRKE | 0.654 ± 0.019 |
| LVPWSGCSALLV | 0.585 ± 0.014 |
| KTNNYPDNNPPG | 0.611 ± 0.016 |
| CPRLWGGRLLMR | 0.5867 ± 0.003 |
| PVDPPEDLNTRS | 0.7098 ± 0.0064 |
| GGWGWEGRGGSG | 0.677 ± 0.014 |

| Sequence | protein stability index |
| --- | --- |
| SLGSRFWGPYPF | 0.679 ± 0.029 |
| CRSGSVGGIRGR | 0.679 ± 0.011 |
| RTAEGRVRGRPR | 0.689 ± 0.067 |
| FNIIHKKNTKEI | 0.778 ± 0.03 |
| PTFRSRPFPPHP | 0.703 ± 0.032 |
| QVFVRRSSPRVL | 0.666 ± 0.014 |
| PPCRREEQTDNH | 0.682 ± 0.059 |
| CPPSPSPPLPPL | 0.712 ± 0.0085 |
| PPSLLPFDPSLP | 0.708 ± 0.082 |
| NLMTPAWTNFSS | 0.756 ± 0.077 |
| ERSVTVKIRDLL | 0.6767 ± 0.0036 |
| SPHPLLSSPPPA | 0.686 ± 0.075 |
| SCLSLSGLPSPL | 0.677 ± 0.062 |
| FPPPCVLPLPRT | 0.723 ± 0.02 |
| FGVSIGELAGRH | 0.686 ± 0.035 |
| HQVPSPPPPGPL | 0.707 ± 0.2 |
| SPSHSVSGPLSF | 0.648 ± 0.014 |
| PPPPSAPPLPLP | 0.61 ± 0.018 |
| YMAGPAQGRDGS | 0.668 ± 0.013 |
| PPTQSRLPLPLL | 0.674 ± 0.033 |
| EWTTTVLGGQLR | 0.696 ± 0.027 |
| PFWGKWVPSSYL | 0.7126 ± 0.0053 |
| THGFKQLTTPLD | 0.676 ± 0.014 |
| VCSLALSRPSTG | 0.6564 ± 0.0018 |
| VGWGLGGGVVLV | 0.675 ± 0.047 |
| APGPPLLLPPPL | 0.697 ± 0.1 |

| Sequence | protein stability index |
| --- | --- |
| RLLGRPFRHERG | 0.698 ± 0.043 |
| SKKRKEKRTKEW | 0.63 ± 0.083 |
| PGLRRHPPPPPP | 0.739 ± 0.071 |
| TSRTLKPGIPPA | 0.7033 ± 0.0013 |
| WGGRSWGLRRGC | 0.664 ± 0.028 |
| LGRNTVIGLCLE | 0.642 ± 0.1 |
| ASRHGALIVLST | 0.6701 ± 0.0053 |
| AFFLHKTFRSSF | 0.732 ± 0.028 |
| TGQVLKYVVGSQ | 0.711 ± 0.055 |
| PTFPPPPRTPPS | 0.719 ± 0.017 |
| VGEIMREVKGPD | 0.72 ± 0.0079 |
| EKKEINKIKNQN | 0.662 ± 0.028 |
| SLFYSPSSVFSF | 0.866 ± 0.13 |
| LWALPTPPPSGH | 0.67 ± 0.1 |
| RVGERVEGGGVV | 0.6085 ± 0.0034 |
| HTRPTALLPLSR | 0.701 ± 0.014 |
| ALIYMRGLGRFF | 0.555 ± 0.025 |
| CFCSWFWDLVLC | 0.628 ± 0.0076 |
| RSRVLALSCRSA | 0.641 ± 0.029 |
| SSLQGSCPSKSL | 0.7 ± 0.044 |
| VTRGGKLRRGRV | 0.638 ± 0.089 |
| GVAEGRKVGAST | 0.654 ± 0.036 |
| RKNEKKKKKNKK | 0.6645 ± 0.0024 |
